Residue numbers refer to the chain shown, from its start. Names may count otherwise.
B1: NIgG4B3A1(G4S)2 (Fc fusion)
chain 1: DVQLQESGGGLVQAGGSLRLSCAASGFIFRLAGMSWVRQAPGKGFEWVSGITMDGSTTNYADSVKGRFTISRDNSKNRLYLQMNSLKPEDTAVYYCARGAKGGYNDPRGQGTQVTVSGGGGSGGGGSGPPCPPCPAPEFLGGPSVFLFPPKPKDTLMISRTPEVTCVVVDVSQEDPEVQFNWYVDGVEVHNAKTKPREEQFNSTYRVVSVLTVLHQDWLNGKEYKCKVSNKGLPSSIEKTISKAKGQPREPQVYTLPPCQEEMTKNQVSLWCLVKGFYPSDIAVEWESNGQPENNYKTTPPVLDSDGSFFLYSRLTVDKSRWQEGNVFSCSVMHEALHNHYTQKSLSLSLGK
chain 2: EVQLLESGGGLVQPGGSLRLSCAASGFTFGNYDMAWVRQAPGKRPEWVSSIDTGGDITHYADSVKGRFTISRDNAKNTLYLQMNSLRPEDTAVYWCATDEEYALGPNEFDYYGQGTLVTVSSGGGGSGGGGSGPPCPPCPAPEFLGGPSVFLFPPKPKDTLMISRTPEVTCVVVDVSQEDPEVQFNWYVDGVEVHNAKTKPREEQFNSTYRVVSVLTVLHQDWLNGKEYKCKVSNKGLPSSIEKTISKAKGQPREPQVCTLPPSQEEMTKNQVSLSCAVKGFYPSDIAVEWESNGQPENNYKTTPPVLDSDGSFFLVSRLTVDKSRWQEGNVFSCSVMHEALHNHYTQKSLSLSLGK
B2: CIgE4A1A1(GS3) (Fc fusion)
chain 1: GPPCPPCPAPEFLGGPSVFLFPPKPKDTLMISRTPEVTCVVVDVSQEDPEVQFNWYVDGVEVHNAKTKPREEQFNSTYRVVSVLTVLHQDWLNGKEYKCKVSNKGLPSSIEKTISKAKGQPREPQVYTLPPCQEEMTKNQVSLWCLVKGFYPSDIAVEWESNGQPENNYKTTPPVLDSDGSFFLYSRLTVDKSRWQEGNVFSCSVMHEALHNHYTQKSLSLSLGKGGGGSGGGGSGGGGSEVQLLESGGGLVQPGGSLRLSCAASGFTFGNYDMAWVRQAPGKRPEWVSSIDTGGDITHYADSVKGRFTISRDNAKNTLYLQMNSLRPEDTAVYWCATDEEYALGPNEFDYYGQGTLVTVSS
chain 2: B2 chain 1 with Y127C, C132S, W144S, L146A, Y185V
B3: CIgG4B3A1(G4S)3 (Fc fusion)
chain 1: GPPCPPCPAPEFLGGPSVFLFPPKPKDTLMISRTPEVTCVVVDVSQEDPEVQFNWYVDGVEVHNAKTKPREEQFNSTYRVVSVLTVLHQDWLNGKEYKCKVSNKGLPSSIEKTISKAKGQPREPQVYTLPPCQEEMTKNQVSLWCLVKGFYPSDIAVEWESNGQPENNYKTTPPVLDSDGSFFLYSRLTVDKSRWQEGNVFSCSVMHEALHNHYTQKSLSLSLGKGGGGSGGGGSGGGGSDVQLQESGGGLVQAGGSLRLSCAASGFIFRLAGMSWVRQAPGKGFEWVSGITMDGSTTNYADSVKGRFTISRDNSKNRLYLQMNSLKPEDTAVYYCARGAKGGYNDPRGQGTQVTVS
chain 2: B2 chain 1 with Y127C, C132S, W144S, L146A, Y185V
B4: NIgG4B3A1(G4S)1 (Fc fusion)
chain 1: DVQLQESGGGLVQAGGSLRLSCAASGFIFRLAGMSWVRQAPGKGFEWVSGITMDGSTTNYADSVKGRFTISRDNSKNRLYLQMNSLKPEDTAVYYCARGAKGGYNDPRGQGTQVTVSGGGGSGPPCPPCPAPEFLGGPSVFLFPPKPKDTLMISRTPEVTCVVVDVSQEDPEVQFNWYVDGVEVHNAKTKPREEQFNSTYRVVSVLTVLHQDWLNGKEYKCKVSNKGLPSSIEKTISKAKGQPREPQVYTLPPCQEEMTKNQVSLWCLVKGFYPSDIAVEWESNGQPENNYKTTPPVLDSDGSFFLYSRLTVDKSRWQEGNVFSCSVMHEALHNHYTQKSLSLSLGK
chain 2: EVQLLESGGGLVQPGGSLRLSCAASGFTFGNYDMAWVRQAPGKRPEWVSSIDTGGDITHYADSVKGRFTISRDNAKNTLYLQMNSLRPEDTAVYWCATDEEYALGPNEFDYYGQGTLVTVSSGGGGSGPPCPPCPAPEFLGGPSVFLFPPKPKDTLMISRTPEVTCVVVDVSQEDPEVQFNWYVDGVEVHNAKTKPREEQFNSTYRVVSVLTVLHQDWLNGKEYKCKVSNKGLPSSIEKTISKAKGQPREPQVCTLPPSQEEMTKNQVSLSCAVKGFYPSDIAVEWESNGQPENNYKTTPPVLDSDGSFFLVSRLTVDKSRWQEGNVFSCSVMHEALHNHYTQKSLSLSLGK
B5: CIgG4B3A1(RS) (Fc fusion)
chain 1: GPPCPPCPAPEFLGGPSVFLFPPKPKDTLMISRTPEVTCVVVDVSQEDPEVQFNWYVDGVEVHNAKTKPREEQFNSTYRVVSVLTVLHQDWLNGKEYKCKVSNKGLPSSIEKTISKAKGQPREPQVYTLPPCQEEMTKNQVSLWCLVKGFYPSDIAVEWESNGQPENNYKTTPPVLDSDGSFFLYSRLTVDKSRWQEGNVFSCSVMHEALHNHYTQKSLSLSLGKRSDVQLQESGGGLVQAGGSLRLSCAASGFIFRLAGMSWVRQAPGKGFEWVSGITMDGSTTNYADSVKGRFTISRDNSKNRLYLQMNSLKPEDTAVYYCARGAKGGYNDPRGQGTQVTVS
chain 2: GPPCPPCPAPEFLGGPSVFLFPPKPKDTLMISRTPEVTCVVVDVSQEDPEVQFNWYVDGVEVHNAKTKPREEQFNSTYRVVSVLTVLHQDWLNGKEYKCKVSNKGLPSSIEKTISKAKGQPREPQVCTLPPSQEEMTKNQVSLSCAVKGFYPSDIAVEWESNGQPENNYKTTPPVLDSDGSFFLVSRLTVDKSRWQEGNVFSCSVMHEALHNHYTQKSLSLSLGKRSEVQLLESGGGLVQPGGSLRLSCAASGFTFGNYDMAWVRQAPGKRPEWVSSIDTGGDITHYADSVKGRFTISRDNAKNTLYLQMNSLRPEDTAVYWCATDEEYALGPNEFDYYGQGTLVTVSS
B6: NIgG4B3A1(RS) (Fc fusion)
chain 1: DVQLQESGGGLVQAGGSLRLSCAASGFIFRLAGMSWVRQAPGKGFEWVSGITMDGSTTNYADSVKGRFTISRDNSKNRLYLQMNSLKPEDTAVYYCARGAKGGYNDPRGQGTQVTVSRSGPPCPPCPAPEFLGGPSVFLFPPKPKDTLMISRTPEVTCVVVDVSQEDPEVQFNWYVDGVEVHNAKTKPREEQFNSTYRVVSVLTVLHQDWLNGKEYKCKVSNKGLPSSIEKTISKAKGQPREPQVYTLPPCQEEMTKNQVSLWCLVKGFYPSDIAVEWESNGQPENNYKTTPPVLDSDGSFFLYSRLTVDKSRWQEGNVFSCSVMHEALHNHYTQKSLSLSLGK
chain 2: EVQLLESGGGLVQPGGSLRLSCAASGFTFGNYDMAWVRQAPGKRPEWVSSIDTGGDITHYADSVKGRFTISRDNAKNTLYLQMNSLRPEDTAVYWCATDEEYALGPNEFDYYGQGTLVTVSSRSGPPCPPCPAPEFLGGPSVFLFPPKPKDTLMISRTPEVTCVVVDVSQEDPEVQFNWYVDGVEVHNAKTKPREEQFNSTYRVVSVLTVLHQDWLNGKEYKCKVSNKGLPSSIEKTISKAKGQPREPQVCTLPPSQEEMTKNQVSLSCAVKGFYPSDIAVEWESNGQPENNYKTTPPVLDSDGSFFLVSRLTVDKSRWQEGNVFSCSVMHEALHNHYTQKSLSLSLGK
B7: CIgG4B3A1(G4S)2 (Fc fusion)
chain 1: GPPCPPCPAPEFLGGPSVFLFPPKPKDTLMISRTPEVTCVVVDVSQEDPEVQFNWYVDGVEVHNAKTKPREEQFNSTYRVVSVLTVLHQDWLNGKEYKCKVSNKGLPSSIEKTISKAKGQPREPQVYTLPPCQEEMTKNQVSLWCLVKGFYPSDIAVEWESNGQPENNYKTTPPVLDSDGSFFLYSRLTVDKSRWQEGNVFSCSVMHEALHNHYTQKSLSLSLGKGGGGSGGGGSDVQLQESGGGLVQAGGSLRLSCAASGFIFRLAGMSWVRQAPGKGFEWVSGITMDGSTTNYADSVKGRFTISRDNSKNRLYLQMNSLKPEDTAVYYCARGAKGGYNDPRGQGTQVTVS
chain 2: GPPCPPCPAPEFLGGPSVFLFPPKPKDTLMISRTPEVTCVVVDVSQEDPEVQFNWYVDGVEVHNAKTKPREEQFNSTYRVVSVLTVLHQDWLNGKEYKCKVSNKGLPSSIEKTISKAKGQPREPQVCTLPPSQEEMTKNQVSLSCAVKGFYPSDIAVEWESNGQPENNYKTTPPVLDSDGSFFLVSRLTVDKSRWQEGNVFSCSVMHEALHNHYTQKSLSLSLGKGGGGSGGGGSEVQLLESGGGLVQPGGSLRLSCAASGFTFGNYDMAWVRQAPGKRPEWVSSIDTGGDITHYADSVKGRFTISRDNAKNTLYLQMNSLRPEDTAVYWCATDEEYALGPNEFDYYGQGTLVTVSS
B8: CIgG4B3A1(G4S)1 (Fc fusion)
chain 1: GPPCPPCPAPEFLGGPSVFLFPPKPKDTLMISRTPEVTCVVVDVSQEDPEVQFNWYVDGVEVHNAKTKPREEQFNSTYRVVSVLTVLHQDWLNGKEYKCKVSNKGLPSSIEKTISKAKGQPREPQVYTLPPCQEEMTKNQVSLWCLVKGFYPSDIAVEWESNGQPENNYKTTPPVLDSDGSFFLYSRLTVDKSRWQEGNVFSCSVMHEALHNHYTQKSLSLSLGKGGGGSDVQLQESGGGLVQAGGSLRLSCAASGFIFRLAGMSWVRQAPGKGFEWVSGITMDGSTTNYADSVKGRFTISRDNSKNRLYLQMNSLKPEDTAVYYCARGAKGGYNDPRGQGTQVTVS
chain 2: GPPCPPCPAPEFLGGPSVFLFPPKPKDTLMISRTPEVTCVVVDVSQEDPEVQFNWYVDGVEVHNAKTKPREEQFNSTYRVVSVLTVLHQDWLNGKEYKCKVSNKGLPSSIEKTISKAKGQPREPQVCTLPPSQEEMTKNQVSLSCAVKGFYPSDIAVEWESNGQPENNYKTTPPVLDSDGSFFLVSRLTVDKSRWQEGNVFSCSVMHEALHNHYTQKSLSLSLGKGGGGSEVQLLESGGGLVQPGGSLRLSCAASGFTFGNYDMAWVRQAPGKRPEWVSSIDTGGDITHYADSVKGRFTISRDNAKNTLYLQMNSLRPEDTAVYWCATDEEYALGPNEFDYYGQGTLVTVSS

Target: mixture of three Der p 2 specific recombinant human IgE clones H10, H12, P4E (human) (UniProt P01854)
Test: RBL-SX38 IgE displacement, FACS

Chain of mixture of three Der p 2 specific recombinant human IgE clones H10, H12, P4E (human) (P01854 other isoform, or with tags, fused parts or gaps): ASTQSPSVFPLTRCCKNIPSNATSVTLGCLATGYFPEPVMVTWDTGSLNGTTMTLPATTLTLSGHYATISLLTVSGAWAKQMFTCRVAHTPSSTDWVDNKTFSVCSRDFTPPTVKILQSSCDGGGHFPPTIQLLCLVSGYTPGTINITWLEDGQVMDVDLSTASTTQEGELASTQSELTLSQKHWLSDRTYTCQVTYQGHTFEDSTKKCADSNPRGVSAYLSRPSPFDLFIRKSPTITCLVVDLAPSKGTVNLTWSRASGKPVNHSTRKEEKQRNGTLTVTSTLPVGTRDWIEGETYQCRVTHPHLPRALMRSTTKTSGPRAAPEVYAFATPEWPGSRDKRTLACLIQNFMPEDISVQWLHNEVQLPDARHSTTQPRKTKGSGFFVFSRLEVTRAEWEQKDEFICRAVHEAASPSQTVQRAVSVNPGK

Row | Binder | Max effect/effect 1 µM [%]
1 | B1 | 94
2 | B2 | 10
3 | B3 | 76
4 | B4 | 94
5 | B5 | 1
6 | B6 | 94
7 | B7 | 28
8 | B8 | 12

From patent publication US20250171562A1
